T1: cynomolgus monkey Nectin-4 expressed on CHO-K1 cells (cynomolgus monkey, UniProt Q96NY8 32-370 (human entry), limits assumed)
T1 construct: also called CHO-K1/cynoNectin4; cells expressing the cynomolgus monkey Nectin-4 protein
T1 chain: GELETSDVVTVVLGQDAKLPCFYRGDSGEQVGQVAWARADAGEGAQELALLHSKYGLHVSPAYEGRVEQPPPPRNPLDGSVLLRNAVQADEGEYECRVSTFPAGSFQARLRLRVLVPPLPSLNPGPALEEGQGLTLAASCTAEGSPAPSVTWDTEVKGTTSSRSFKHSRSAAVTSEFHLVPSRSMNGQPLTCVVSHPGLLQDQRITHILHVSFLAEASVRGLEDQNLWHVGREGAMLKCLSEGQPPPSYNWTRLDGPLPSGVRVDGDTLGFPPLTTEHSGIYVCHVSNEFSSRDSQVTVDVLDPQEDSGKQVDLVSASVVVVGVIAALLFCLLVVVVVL

T2: human Nectin-4 expressed on HT-1376 tumor cells (human, UniProt Q96NY8 32-510)
T2 construct: whole, on cells; also called HT-1376 cells expressing human Nectin-4
T2 sequence (looked up): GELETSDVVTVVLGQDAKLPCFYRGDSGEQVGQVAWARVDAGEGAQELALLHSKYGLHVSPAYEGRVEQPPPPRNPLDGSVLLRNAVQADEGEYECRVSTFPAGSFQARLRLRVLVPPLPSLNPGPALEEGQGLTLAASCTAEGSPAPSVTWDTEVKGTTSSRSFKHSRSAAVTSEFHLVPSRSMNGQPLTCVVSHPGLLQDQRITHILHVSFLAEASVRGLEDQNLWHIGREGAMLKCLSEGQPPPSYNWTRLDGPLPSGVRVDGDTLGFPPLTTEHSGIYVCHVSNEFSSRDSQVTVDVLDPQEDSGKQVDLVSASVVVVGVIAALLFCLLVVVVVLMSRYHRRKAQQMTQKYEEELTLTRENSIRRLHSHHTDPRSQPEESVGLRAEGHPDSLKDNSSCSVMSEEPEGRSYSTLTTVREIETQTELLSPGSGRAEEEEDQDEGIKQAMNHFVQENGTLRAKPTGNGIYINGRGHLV

T3: human Nectin-2 protein (Sino Biological, Cat. No. 10005-H08H) (human, UniProt Q92692 32-360)
T3 sequence (looked up): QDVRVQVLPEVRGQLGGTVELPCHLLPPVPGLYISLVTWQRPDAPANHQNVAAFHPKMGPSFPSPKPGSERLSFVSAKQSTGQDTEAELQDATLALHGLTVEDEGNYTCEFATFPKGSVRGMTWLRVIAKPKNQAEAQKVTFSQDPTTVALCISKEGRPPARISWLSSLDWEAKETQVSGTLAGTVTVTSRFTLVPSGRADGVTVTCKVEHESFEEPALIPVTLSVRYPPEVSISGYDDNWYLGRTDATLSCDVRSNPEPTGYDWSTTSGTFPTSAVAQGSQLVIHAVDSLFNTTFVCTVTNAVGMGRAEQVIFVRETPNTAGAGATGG


Tests used:
[1] = molecular target: T1, cynomolgus monkey Nectin-4 expressed on …; experiment: flow cytometry on CHO-K1/cynoNectin4 cells
[2] = molecular target: T2, human Nectin-4 expressed on HT-1376 …; experiment: flow cytometry on HT-1376 cells
[3] = molecular target: T3, human Nectin-2 protein (Sino …); experiment: ELISA, Nectin family protein immobilised on plate
[4] = molecular target: human Nectin-3 protein (Sino Biological, Cat. No. 10852-H08H) (human, UniProt Q9NQS3 58-404); experiment: ELISA, Nectin family protein immobilised on plate
Chain of human Nectin-3 protein (Sino Biological, Cat. No. 10852-H08H) (Q9NQS3 58-404 limits assumed): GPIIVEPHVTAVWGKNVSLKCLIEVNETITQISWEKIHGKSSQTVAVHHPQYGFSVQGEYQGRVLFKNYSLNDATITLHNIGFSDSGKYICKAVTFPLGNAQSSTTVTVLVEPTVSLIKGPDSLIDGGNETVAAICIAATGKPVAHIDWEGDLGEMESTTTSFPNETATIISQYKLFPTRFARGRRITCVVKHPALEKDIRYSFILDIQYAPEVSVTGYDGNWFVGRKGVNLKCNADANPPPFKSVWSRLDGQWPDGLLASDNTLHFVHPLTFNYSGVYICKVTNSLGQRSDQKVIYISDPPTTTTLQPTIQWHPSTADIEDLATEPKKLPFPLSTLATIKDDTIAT

Row | Binder | binding result [1] | binding result [2] | EC50 [1] | EC50 [2] | binding result [3] | binding result [4]
1 | Antibody 6-B9B6 (murine chimeric anti-Nectin-4 antibody) (antibody, human IgG1, kappa, V domains shown, Mouse variable regions on human IgG1 / human kappa constant regions) VH: EVHLVESGGGLVQPGGSLKLSCAASGFTFSSYGMSWVRQTPDKRLELVATINNIGGSTFPPDSVKGRFTVSRDNAKNTLYLQMSSLKSEDTAMYYCARAYDYVPFAYWGQGTLVTVSA VL: DIQMTQSSSYLSVSLGGRVTITCKASDHINNWLAWYQQKPGNAPRLLISGATSLETGVPSRFSGSGSGKDYALSIASLQTEDVATYYCQQYWSTPFTFGSGTKLEIKR |  |  | 0.719 nM | 0.249 nM | no binding | no binding
2 | Antibody 23-H4F3 (murine chimeric anti-Nectin-4 antibody) (antibody, human IgG1, kappa, V domains shown, Mouse variable regions on human IgG1 / human kappa constant regions, expressed in ExpiCHO-S cells; also called chimeric antibody 23-H4F3) VH: QVQLQQSGPELVKPGASVRISCKASGYTFTSYYIHWVKQRPGQGLEWIGWIYPGNVNTKYNEKFKGKATLTADKSSSTAYMQLISLTSEDSAVYFCARGVYYFDFWGQGTTLTVSS VL: SIVMTQTPKFLLVSAGDRVTLTCKASQSVSNDVAWFQQKPGQSPKLLIYYALNRYTGVPDRFTGSGYGTDFTFTISTVQAEDLAVYFCQQDYSSPYTFGGGTKLEIKR |  |  | 0.411 nM | 0.064 nM | no binding | no binding
3 | huH4F3-2 (antibody, human IgG1, kappa, V domains shown, Humanized 23-H4F3, human IgG1/kappa) VH: QVQLVQSGAEVKKPGASVKVSCKASGYTFTSYYIHWVRQAPGQRLEWMGWIYPGNVNTKYSQKFQGRVTLTRDKSASTAYMELSSLRSEDTAVYYCARGVYYFDFWGQGTLVTVSS VL: AIQMTQSPSSLSASVGDRVTITCRASQSVSNDVGWYQQKPGKAPKLLIYYALNRYTGVPSRFSGSGSGTDFTLTISSLQPEDFATYYCQQDYSSPYTFGQGTKLEIKR | binds | binds |  |  |  | 
4 | huH4F3-4 (antibody, human IgG1, kappa, V domains shown, Humanized 23-H4F3, human IgG1/kappa) VH: QVQLVQSGAEVKKPGASVKVSCKASGYTFTSYYIHWVRQAPGQRLEWMGWIYPGNVNTKYSQKFQGRVTLTRDKSASTAYMELSSLRSEDTAVYYCARGVYYFDFWGQGTLVTVSS VL: DIVMTQSPDSLAVSLGERATINCKASQSVSNDVAWYQQKPGQPPKLLIYYALNRESGVPDRFSGSGSGTDFTLTISSLQAEDVAVYYCQQDYSSPYTFGQGTKLEIKR | binds | binds |  |  |  | 
5 | huH4F3-5 (antibody, human IgG1, kappa, V domains shown, Humanized 23-H4F3, human IgG1/kappa) VH: QVQLVQSGAEVKKPGASVKVSCKASGYTFTSYYIHWVRQAPGQRLEWMGWIYPGNVNTKYSQKFQGRVTLTRDKSASTAYMELSSLRSEDTAVYYCARGVYYFDFWGQGTLVTVSS VL: DIVMTQSPDSLAVSLGERATINCKSSQSVSNDVAWYQQKPGQPPKLLIYYALNRESGVPDRFSGSGSGTDFTLTISSLQAEDVAVYYCQQDYSSPYTFGQGTKLEIKR | binds | binds |  |  |  | 
6 | huH4F3-10 (antibody, human IgG1, kappa, V domains shown, Humanized 23-H4F3, human IgG1/kappa) VH: QVQLVQSGAEVKKPGASVKVSCKASGYTFTSYYIHWVRQAPGQRLEWMGWIYPGNVNTKYSQKFQGRVTLTRDKSASTAYMELSSLRSEDTAVYFCARGVYYFDFWGQGTLVTVSS VL: DIVMTQSPDSLAVSLGERATINCKSSQSVSNDVAWYQQKPGQPPKLLIYYALNRESGVPDRFSGSGSGTDFTLTISSLQAEDVAVYYCQQDYSSPYTFGQGTKLEIKR | binds | binds |  |  |  | 
7 | huH4F3-6 (antibody, human IgG1, kappa, V domains shown, Humanized 23-H4F3, human IgG1/kappa) VH: QVQLVQSGAEVKKPGASVKVSCKASGYTFTSYYIHWVRQAPGQRLEWMGWIYPGNVNTKYSQKFQGRVTLTRDKSASTAYMELSSLRSEDTAVYFCARGVYYFDFWGQGTLVTVSS VL: AIQMTQSPSSLSASVGDRVTITCRASQSVSNDVGWYQQKPGKAPKLLIYYALNLQSGVPSRFSGSGSGTDFTLTISSLQPEDFATYYCQQDYSSPYTFGQGTKLEIKR | binds | binds |  |  |  | 
8 | huH4F3-9 (antibody, human IgG1, kappa, V domains shown, Humanized 23-H4F3, human IgG1/kappa) VH: QVQLVQSGAEVKKPGASVKVSCKASGYTFTSYYIHWVRQAPGQRLEWMGWIYPGNVNTKYSQKFQGRVTLTRDKSASTAYMELSSLRSEDTAVYFCARGVYYFDFWGQGTLVTVSS VL: DIVMTQSPDSLAVSLGERATINCKASQSVSNDVAWYQQKPGQPPKLLIYYALNRESGVPDRFSGSGSGTDFTLTISSLQAEDVAVYYCQQDYSSPYTFGQGTKLEIKR | binds | binds |  |  |  | 
9 | huH4F3-8 (antibody, human IgG1, kappa, V domains shown, Humanized 23-H4F3, human IgG1/kappa) VH: QVQLVQSGAEVKKPGASVKVSCKASGYTFTSYYIHWVRQAPGQRLEWMGWIYPGNVNTKYSQKFQGRVTLTRDKSASTAYMELSSLRSEDTAVYFCARGVYYFDFWGQGTLVTVSS VL: AIQMTQSPSSLSASVGDRVTITCRASQSVSNDVGWFQQKPGKAPKLLIYYALNRYTGVPSRFSGSGSGTDFTFTISSLQPEDFATYYCQQDYSSPYTFGQGTKLEIKR | binds | binds |  |  |  | 
10 | huH4F3-7 (antibody, human IgG1, kappa, V domains shown, Humanized 23-H4F3, human IgG1/kappa) VH: QVQLVQSGAEVKKPGASVKVSCKASGYTFTSYYIHWVRQAPGQRLEWMGWIYPGNVNTKYSQKFQGRVTLTRDKSASTAYMELSSLRSEDTAVYFCARGVYYFDFWGQGTLVTVSS VL: AIQMTQSPSSLSASVGDRVTITCRASQSVSNDVGWYQQKPGKAPKLLIYYALNRYTGVPSRFSGSGSGTDFTLTISSLQPEDFATYYCQQDYSSPYTFGQGTKLEIKR | binds | binds |  |  |  | 

More lines, now with the values ahead:

Row | binding result [1] | binding result [2] | EC50 [1] | EC50 [2] | binding result [3] | binding result [4] | Binder
11 | binds | binds |  |  |  |  | Enfortumab (antibody, human IgG1, kappa, V domains shown, used as control antibody (naked antibody, no drug); also called control antibody enfortumab) VH: EVQLVESGGGLVQPGGSLRLSCAASGFTFSSYNMNWVRQAPGKGLEWVSYISSSSSTIYYADSVKGRFTISRDNAKNSLSLQMNSLRDEDTAVYYCARAYYYGMDVWGQGTTVTVSS VL: DIQMTQSPSSVSASVGDRVTITCRASQGISGWLAWYQQKPGKAPKFLIYAASTLQSGVPSRFSGSGSGTDFTLTISSLQPEDFATYYCQQANSFPPTFGGGTKVEIKR
12 |  |  | 1.05 nM | 0.3 nM |  |  | Antibody 32-A12C7 (murine chimeric anti-Nectin-4 antibody) (antibody, human IgG1, kappa, V domains shown, Mouse variable regions on human IgG1 / human kappa constant regions) VH: QVQLQQPGAELVMPGASVKMSCKASGYTFTDYWMHWVKQRPGQGLEWIGAIDTSDSYTSYNQKFKGKATLTVDESSSTAYMQLSSLTSEDSAVYYCARWGSTMITWGYGMDNWGQGTSVTVSS VL: DIQMTQTTSSLSASLGDRVTISCRASQDINNYLNWYQQKPDGTVKLLIYYTSRLHSGVPSRFSGSGSGTDYSLTISNLEQEDIATYFCQQGNTLPWTFGGGTKLEIKR
13 | binds | binds |  |  |  |  | huH4F3-3 (antibody, human IgG1, kappa, V domains shown, Humanized 23-H4F3, human IgG1/kappa) VH: QVQLVQSGAEVKKPGASVKVSCKASGYTFTSYYIHWVRQAPGQRLEWMGWIYPGNVNTKYSQKFQGRVTLTRDKSASTAYMELSSLRSEDTAVYYCARGVYYFDFWGQGTLVTVSS VL: AIQMTQSPSSLSASVGDRVTITCRASQSVSNDVGWFQQKPGKAPKLLIYYALNRYTGVPSRFSGSGSGTDFTFTISSLQPEDFATYYCQQDYSSPYTFGQGTKLEIKR
14 | binds | binds |  |  |  |  | huH4F3-1 (antibody, human IgG1, kappa, V domains shown, Humanized 23-H4F3, human IgG1/kappa) VH: QVQLVQSGAEVKKPGASVKVSCKASGYTFTSYYIHWVRQAPGQRLEWMGWIYPGNVNTKYSQKFQGRVTLTRDKSASTAYMELSSLRSEDTAVYYCARGVYYFDFWGQGTLVTVSS VL: AIQMTQSPSSLSASVGDRVTITCRASQSVSNDVGWYQQKPGKAPKLLIYYALNLQSGVPSRFSGSGSGTDFTLTISSLQPEDFATYYCQQDYSSPYTFGQGTKLEIKR

From patent EP4671280A1 (Nanjing Leads Biolabs Co., Ltd., dated 2025)
